Results: patent CN108822212A (UNIV BEIJING, dated 2018)

Key:
KIT ITD D4-5蛋白 = molecular target: T1, KIT ITD D4-5蛋白 (human, UniProt P10721 309-519); assay: SPR, Biacore T200, 3G2 amine-coupled on CM5, KIT ITD D4-5 as analyte (3.125-100 nM)
T1 chain: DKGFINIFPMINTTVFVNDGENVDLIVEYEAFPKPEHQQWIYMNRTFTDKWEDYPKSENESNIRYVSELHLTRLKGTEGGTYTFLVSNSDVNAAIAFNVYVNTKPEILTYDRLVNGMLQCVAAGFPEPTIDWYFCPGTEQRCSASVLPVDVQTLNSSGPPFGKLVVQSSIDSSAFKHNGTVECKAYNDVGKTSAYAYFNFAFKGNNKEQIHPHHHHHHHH

KIT WT D4-5蛋白 = molecular target: T2, KIT WT D4-5蛋白 (human, UniProt P10721 309-519, limits assumed); assay: SPR, Biacore T200, 3G2 amine-coupled on CM5, KIT WT D4-5 as analyte (3.125-100 nM)
T2 construct: domain: 第4、5个Ig结构域 (D4-5); Expressed in HEK293 cells by BacMam; also called KIT WT的第4、5个结构域

[1] = molecular target: 全长KIT ITD (Ba/F3稳定细胞系表面) (human) (UniProt P10721); assay: cell-based or functional assay
[2] = molecular target: 全长KIT WT (Ba/F3稳定细胞系表面) (human) (UniProt P10721); assay: cell-based or functional assay

- Kd (KIT ITD D4-5蛋白): 17.1 nM
- Kd (KIT WT D4-5蛋白): 154 nM
- percent of KIT ITD Ba/F3 cells in early apoptosis at 10 nM 3G2 [1]: 41%
- percent of KIT ITD Ba/F3 cells in late apoptosis at 10 nM 3G2 [1]: 14.5%
- percent of KIT ITD Ba/F3 cells in programmed apoptosis at 10 nM 3G2 (Annexin V-FITC/7-AAD) [1]: 55.5%
- percent apoptosis of KIT WT Ba/F3 cells with 3G2 [2]: 10.9%
B1: 单克隆抗体3G2 (antibody, V domains shown)
VH: EVQLQESGPGLVKPSQSLSLTCTVAGYSITSDYAWNWIRQFPGNRLEWVGYISYSGSTSYNPSLKSRISITRDTSQNQFFLQLNSVTTEDTATYYCTRWRYRYTLAMDYWGQGTSVTVSS
VL: DIVLTQSPAITAASLGQKVTITCSASSSISYIHWYQQKSGTSPKPWIYEIYKLASGVPPRFSGSGSGTSYSLTISSMEAEDAAIYYCQQWNYPFTFGSGTKLEIKR
notes: also called 3G2抗体; not shown: hinge and Fc of the mouse hybridoma antibody
- IC50 of cell survival (CCK8) of KIT ITD Ba/F3 cells [1]: 1.29 nM
